Patent publication US20190225705A1 (published 2019)
Substitutions are numbered along the chain they refer to.

Assays:
[1] = biological target: T1, human coagulation factor XI (UniProt P03951 19-625); experiment: ELISA
[2] = biological target: T1, human coagulation factor XI; experiment: ELISA; remark: listed apart in the source
[3] = biological target: T1, human coagulation factor XI; experiment: FXIIa induced FXI conversion assay
[4] = biological target: T1, human coagulation factor XI; experiment: Conversion Assay
[5] = biological target: baboon FXI (Papio anubis (baboon)); experiment: ELISA
[6] = biological target: T1, human coagulation factor XI; experiment: ELISA; remark: listed apart in the source
[7] = biological target: T1, human coagulation factor XI; experiment: ELISA; remark: listed apart in the source
[8] = biological target: T1, human coagulation factor XI; experiment: ELISA; remark: listed apart in the source
[9] = biological target: T1, human coagulation factor XI; experiment: ELISA; remark: listed apart in the source

B1: humanized and germlined anti-FXI antibody TPP-3583 (antibody, V domains shown)
VH: EVTLRESGPALVKPTQTLTLTCTFSGFSLSTSGMGVGWIRQPPGKALEWLAHIDWDDDKYYSPSLKSRLTISKDTSKNQVVLTMTNMDPVDTATYYCARIRSSVYAHYYGMDYWGQGTTVTVSS
VL: DIVMTQSPDSLAVSLGERATISCKASQSVLYSGDNYLNWYQQKPGQPPKLLIYAASTLESGIPDRFSGSGSGTDFTLTISSLQAEDVAVYYCQQYNGDPWTFGGGTKVEIKR
[1]
  EC50: 0.2 nM
[2]
  EC50: 0.219 nM
[3]
  IC50: 0.598 nM
[4]
  EC50: 0.6 nM

B2: TPP-3238 (antibody, V domains shown)
VH: B1 VH with G37S, P63T, A106Y, H107Y, Y113V
VL: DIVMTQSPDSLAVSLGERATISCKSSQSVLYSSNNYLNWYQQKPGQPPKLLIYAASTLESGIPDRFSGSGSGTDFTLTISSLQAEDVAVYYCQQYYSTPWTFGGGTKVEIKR
[5]
  EC50: 0.28 nM

B3: TPP-3583 (antibody, V domains shown)
VH: B1 VH
VL: B1 VL
[5]
  EC50: 0.13 nM

B4: humanized and germlined anti-FXI antibody TPP-3577 (antibody, V domains shown)
VH: B1 VH with G35C, P63T, Y113V
VL: B1 VL with A25S
[1]
  EC50: 0.19 nM
[6]
  EC50: 0.119 nM
[4]
  EC50: 0.4 nM

B5: humanized and germlined anti-FXI antibody TPP-3238 (antibody, V domains shown)
VH: B1 VH with G37S, P63T, A106Y, H107Y, Y113V
VL: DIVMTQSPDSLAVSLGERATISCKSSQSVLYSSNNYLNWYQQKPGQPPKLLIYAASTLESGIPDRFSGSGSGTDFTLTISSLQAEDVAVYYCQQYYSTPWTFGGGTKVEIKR
[1]
  EC50: 0.16 nM
[7]
  EC50: 0.165 nM
[4]
  EC50: 0.6 nM

B6: TPP-3290 (antibody, V domains shown)
VH: B1 VH with G37S, P63T
VL: B1 VL with D98T
[5]
  EC50: 0.14 nM

B7: humanized and germlined anti-FXI antibody TPP-3290 (antibody, V domains shown)
VH: B1 VH with G37S, P63T
VL: B1 VL with D98T
[1]
  EC50: 0.17 nM
[8]
  EC50: 0.168 nM
[4]
  EC50: 0.4 nM

B8: TPP-3577 (antibody, V domains shown)
VH: B1 VH with G35C, P63T, Y113V
VL: B1 VL with A25S
[5]
  EC50: 0.16 nM

B9: 1A6 (antibody, V domains shown)
VH: QVTLKESGPGILKPSQTLSLTCSFSGFSLSTSGMGVGWIRQPSGKGLEWLAHIWWDDDKYYNPSLKSQLTISKDTSRNQVFLKITSVDAADTATYYCARKRSSVVAHYYAMDYWGQGTSVTVSS
VL: DIVLTQSPASLAVSLGQRATISCKASQSVDYDGDSYLNWYQQKPGQPPKLLIYAASNLESGIPARFSGSGSGTDFTLNIHPVEEEDAATYYCQQSNGDPWTFGGGTKLEIK
[5]
  EC50: 0.16 nM

B10: murine anti-FXI antibody 1A6 (antibody, V domains shown)
VH: B9 VH
VL: B9 VL
[1]
  EC50: 0.15 nM
[9]
  EC50: 0.154 nM
[4]
  EC50: 0.5 nM
